± gives the uncertainty stated by the source.
Test: amyloid nucleation score (Sup35N fusion, yeast selection) (log enrichment); library NNK3; higher = more nucleation; inactive = no reads after selection
In short: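 Output and input plasmid inserts were sequenced by Illumina after psi-negative yeast carrying Sup35N fused to peptides of 20 random codons had been induced 24 hours with 100 μM copper sulfate and grown 7 days at 30°C on medium lacking adenine and uracil. The nucleation score is the DiMSum log enrichment of output over input reads, centred on the mode score of non-aggregating sequences. Sequences with under 100 input reads were excluded.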

Substance | amyloid nucleation score
RMYACSWGKSDLSCLMSFGK | inactive
RMYRGWLVPDAARSKGCRVM | inactive
RNCLIYGHNDILGISRLSDF | inactive
RNEWCFSKPILEYHCRMDVF | inactive
RNFARCRFNPPMTHHSFFNT | inactive
RNFMSFRWPVLKLQRRVP | inactive
RNIYM | inactive
RNLSLDLT | inactive
RNMNLLSMHIGLISLFSGEL | 1.81 ± 0.056
RNNVMYVGYEGI | inactive
RNRLN | inactive
RNTGKAVHFCNRVYDSSMSM | -0.1 ± 0.6
RNWCSLNNLFYPWV | 1.78 ± 0.12
RNYFMVLGRKYVFLFFWMMM | inactive
RPAVLGPAFRYSSLAP | inactive
RPFGLAVTRWAPSFAGSRTS | inactive
RPFSNAGYAFNHGFFV | inactive
RPMRDCIGHSQS | inactive
RPRWFGPRSVVGMRASCTCW | inactive
RQFCSQLICSIMVYVCLCGI | inactive
RQGGVNRNSVSMHSHGYRDC | inactive
RQSALRWFSNDNWGICKAHD | -0.06 ± 0.87
RQVTLARWTISIC | inactive

Substance | amyloid nucleation score
RRAVVLSVRGWRSAVTSRFS | inactive
RRCSIFLVVDIAGQLQRFMS | inactive
RRFTHRIEVRTSVAIS | inactive
RRGIWDSVKMEKFL | inactive
RRKHHVISQVPERPLSWLAT | inactive
RRKKQFFFLFFSHRNLFFPV | 2.18 ± 0.097
RRKRYCISDLA | inactive
RRKYW | inactive
RRLLSKGVKIVRLISDEVYC | inactive
RRLQV | inactive
RRLVMDTTRLACKRYWRFLN | inactive
RRMNISRGSCVELWFRFQWP | 0.163 ± 0.43
RRNEFVLWYLGDTSWYVWFS | 0.268 ± 0.27
RRNWSCMQTLSLANVVRVSA | inactive
RRRGNKAFHPLQ | inactive
RRSYTFRSVGKEWNIAYWYI | inactive
RRTMSSLFFKFDLH | inactive
RRYPRTLYERVSCVS | inactive
RRYVSSDFFLSAWWTVS | inactive
RSAERRAQNSNFKLVDLGRN | inactive
RSAKAYLTLWCRMYNPRIYM | -0.345 ± 1.3
RSARQHFPRNRGGNHSSDRV | 0.204 ± 0.43
RSFRSKPKYLLTSDTCWSLT | inactive

Substance | amyloid nucleation score
RSGWS | inactive
RSHPKCHSSLLHSWK | inactive
RSIDGKSYNLAYLLGGLRNS | 2.56 ± 0.065
RSKRSLCRGLPDMYAWKWSR | inactive
RSMSSGAICSMSY | inactive
RSMVGWACYLSWRFA | inactive
RSNLIILSAHYRLYMDLRCA | inactive
RSQALFLNWTCDCGGYINQI | 1.01 ± 0.21
RSQNF | inactive
RSRKKRCFLKFILKNFVWSV | inactive
RSRVSQFICRPGEVVNIAKC | inactive
RSTRIGLIYYMGMSATCTWG | inactive
RSTSSENYFYWFKS | inactive
RSTSVWRFLWMLHVFSKLLH | inactive
RSTWMAIWKERYMQTGFL | inactive
RSVRFFVKMINFFASY | 1.04 ± 0.15
RSYLHCSTK | inactive
RSYRI | inactive
RTFMYMWRSEIF | inactive
RTIQFPS | inactive
RTLRRLTGNSILFRYWSNKG | inactive
RTLTLLYTFF | 2.56 ± 0.052
RTRSVLQIWLSFMMLCQACW | -0.534 ± 1.5

Substance | amyloid nucleation score
RTRTCRYFLIVYSVVCLMSI | inactive
RTSEPKTAHIMNEAIRRC | inactive
RTSLYICINKRTLSHRLFPC | inactive
RTVDSH | inactive
RTWNVESFREFGCFKINLGP | inactive
RVAQTAVRVSWALDRFYLWD | inactive
RVERICDNVSSC | -0.577 ± 1
RVFNIEYMLECAFFRTIRD | inactive
RVKRWK | -0.095 ± 0.85
RVLVHYEVGFSENSRWGSVD | 0.481 ± 0.32
RVQIKVDGVSVHTDFSDWRS | 1.8 ± 0.086
RVQWALLSIKGHCS | 0.645 ± 0.24
RVRCDWCFGRGVCMTAIRQD | -0.147 ± 1.1
RVRDCSHRLLDIFVYLCGNT | inactive
RVRRLT | inactive
RVWVMV | inactive
RWELGIQALVR | inactive
RWIFIT | inactive
RWKLFWIHDR | 1.16 ± 0.14
RWLFRSWPGRRMA | inactive
RWLTVKPSRIRLWGCSWGLR | inactive
RWRIEEPTI | inactive
RWSILDGHHNVVLSVPSKS | inactive

Substance | amyloid nucleation score
RWSNYMFDRQLY | -1.2 ± 1.8
RWVNWLLYDKV | inactive
RYCGYHGVRFCSVCRFNMSL | inactive
RYDMRVVSRNQLKYWTMGRE | -0.646 ± 1.1
RYFNGPYLGRTVFEFT | inactive
RYFTLISYVVVVEVSLEKPW | inactive
RYLITVAIPLSIGVLSTV | inactive
RYLLPQIPLLYKWKLLILHG | inactive
RYLYTRNLDMTRTL | inactive
RYNRA | inactive
RYPSDSIGFISLDTGGCGVR | inactive
RYSVYGLNICFL | 2.45 ± 0.083
RYTTY | inactive
RYVEWYLR | inactive
RYYCMYSSGEIRCSVSWGVW | inactive
SAACPWNWLDGASPPLRATA | inactive
SACSVIFTEYINVSLLLSST | 0.251 ± 0.42
SADQSCYSPHFGGQRDRRWL | inactive
SAEVAYGSFVYAGSWCRSVR | inactive
SALEVFLWNKYLFVDVTLLL | inactive
SALPVTSCFFTTMCGTVIID | inactive
SAQNYTL | inactive
SAVKWC | inactive

Substance | amyloid nucleation score
SAWVVFVVFFVSFDPDILFY | inactive
SCDLELSNLELRVWRDTVRK | 1.8 ± 0.069
SCDRVFNLDVNRWKLMRKTC | inactive
SCHSSSGGWEVSGNYRRGKL | inactive
SCISKWST | inactive
SCRFRVLRVFLGQTMYSSSI | inactive
SCVAVSI | inactive
SCVPWICWNCQVPGL | 0.881 ± 0.18
SCVRVTSLGVNNTRFFDRSW | inactive
SCVTHLPTVT | inactive
SDCKMISHFGEVINILSYKI | inactive
SDDDSYLWSSLFQA | inactive
SDFAIWKDFDG | 1.21 ± 0.1
SDFEAFSFGDNMVFLIEMEG | inactive
SDFHCTQKRNMVWEEIA | inactive
SDFRTRTNIQYLQYKNNSSP | inactive
SDGFLSADYRFFMMLRYRLE | inactive
SDHLQ | inactive
SDIVCVKLEYT | inactive
SDKFMLRHHLCWDARSCFQV | 0.348 ± 0.75
SDKLSFSRDPSVMRVGQVQR | inactive
SDKRPWGFRNRDIYVIVGHR | inactive
SDLCRSMSNQFSELSSNDFV | inactive

Substance | amyloid nucleation score
SDLMRKKMDGMDRNEGCPIR | inactive
SDRARRC | 0.163 ± 0.98
SDYLRMVVTYPQTLLYQGTK | inactive
SDYSLYWFK | inactive
SEIIHLGFYYDP | inactive
SELETQDIYMRSQPFTEFSP | inactive
SERYEEMTFSDGYMFSRDDL | inactive
SEYFWLVWPSA | inactive
SFCGLYVKFSVGYVVLIWGS | inactive
SFDARCGWKLNMFYSCSFIQ | -0.009 ± 0.81
SFDVLSRV | inactive
SFESVVYYSWRFVAKFKFWT | inactive
SFHTHRGYNG | inactive
SFHTSGSNKGYCCGVMWMDK | inactive
SFITIVIVSVGMRSLVLHRL | inactive
SFLRTVNGGRFSSVCSL | inactive
SFNFCLFASLSALCMTRVEF | inactive
SFNNACVFYMNSWLRWRI | 1.96 ± 0.083
SFNRISIFYVNWCTAMNFVY | 1.13 ± 0.093
SFRFWSFYTCGEYKWDGTKG | inactive
SFRMSTSCWSSGALMYRLYR | inactive
SFRRLDGNRNLFSSCRVNGL | inactive
SFSCMKDSGPNMCKGLRVKQ | inactive
